Reference: PMC8298264, “Function of cofactor Akirin2 in the regulation of gene expression in model human neutrophil-like HL60 cells” (Bioscience Reports, 2021)

B1: sp¦Q9NPF4¦OSGEP_HUMAN (protein, UniProt Q9NPF4 1-335, looked up)
tRNA N6-adenosine …: MPAVLGFEGSANKIGVGVVRDGKVLANPRRTYVTPPGTGFLPGDTARHHRAVILDLLQEALTESGLTSQDIDCIAYTKGPGMGAPLVSVAVVARTVAQLWNKPLVGVNHCIGHIEMGRLITGATSPTVLYVSGGNTQVIAYSEHRYRIFGETIDIAVGNCLDRFARVLKISNDPSPGYNIEQMAKRGKKLVELPYTVKGMDVSFSGILSFIEDVAHRMLATGECTPEDLCFSLQETVFAMLVEITERAMAHCGSQEALIVGGVGCNVRLQEMMATMCQERGARLFATDERFCIDNGAMIAQAGWEMFRAGHRTPLSDSGVTQRYRTDEVEVTWRD
B2: sp¦P37837¦TALDO_HUMAN (protein, UniProt P37837 1-337, looked up)
Transaldolase: MSSSPVKRQRMESALDQLKQFTTVVADTGDFHAIDEYKPQDATTNPSLILAAAQMPAYQELVEEAIAYGRKLGGSQEDQIKNAIDKLFVLFGAEILKKIPGRVSTEVDARLSFDKDAMVARARRLIELYKEAGISKDRILIKLSSTWEGIQAGKELEEQHGIHCNMTLLFSFAQAVACAEAGVTLISPFVGRILDWHVANTDKKSYEPLEDPGVKSVTKIYNYYKKFSYKTIVMGASFRNTGEIKALAGCDFLTISPKLLGELLQDNAKLVPVLSAKAAQASDLEKIHLDEKSFRWLHNEDQMAVEKLSDGIRKFAADAVKLERMLTERMFNAENGK
B3: sp¦Q9GZU8¦PIP30_HUMAN (protein, UniProt Q9GZU8 1-254, looked up)
PSME3-interacting protein: MDGGDDGNLIIKKRFVSEAELDERRKRRQEEWEKVRKPEDPEECPEEVYDPRSLYERLQEQKDRKQQEYEEQFKFKNMVRGLDEDETNFLDEVSRQQELIEKQRREEELKELKEYRNNLKKVGISQENKKEVEKKLTVKPIETKNKFSQAKLLAGAVKHKSSESGNSVKRLKPDPEPDDKNQEPSSCKSLGNTSLSGPSIHCPSAAVCIGILPGLGAYSGSSDSESSSDSEGTINATGKIVSSIFRTNTFLEAP
B4: Gc-globulin (protein, UniProt P02774 17-474, looked up)
Vitamin D-binding protein: LERGRDYEKNKVCKEFSHLGKEDFTSLSLVLYSRKFPSGTFEQVSQLVKEVVSLTEACCAEGADPDCYDTRTSALSAKSCESNSPFPVHPGTAECCTKEGLERKLCMAALKHQPQEFPTYVEPTNDEICEAFRKDPKEYANQFMWEYSTNYGQAPLSLLVSYTKSYLSMVGSCCTSASPTVCFLKERLQLKHLSLLTTLSNRVCSQYAAYGEKKSRLSNLIKLAQKVPTADLEDVLPLAEDITNILSKCCESASEDCMAKELPEHTVKLCDNLSTKNSKFEDCCQEKTAMDVFVCTYFMPAAQLPELPDVELPTNKDVCDPGNTKVMDKYTFELSRRTHLPEVFLSKVLEPTLKSLGECCDVEDSTTCFNAKGPLLKKELSSFIDKGQELCADYSENTFTEYKKKLAERLKAKLPDATPTELAKLVNKHSDFASNCCSINSPPLYCDSEIDAELKNIL
B5: sp¦Q9UK45¦LSM7_HUMAN (protein, UniProt Q9UK45 2-103, looked up)
U6 snRNA-associated Sm-like …: ADKEKKKKESILDLSKYIDKTIRVKFQGGREASGILKGFDPLLNLVLDGTIEYMRDPDDQYKLTEDTRQLGLVVCRGTSVVLICPQDGMEAIPNPFIQQQDA
B6: sp¦P23921¦RIR1_HUMAN (protein, UniProt P23921 1-792, looked up)
Ribonucleoside-diphosphate …: MHVIKRDGRQERVMFDKITSRIQKLCYGLNMDFVDPAQITMKVIQGLYSGVTTVELDTLAAETAATLTTKHPDYAILAARIAVSNLHKETKKVFSDVMEDLYNYINPHNGKHSPMVAKSTLDIVLANKDRLNSAIIYDRDFSYNYFGFKTLERSYLLKINGKVAERPQHMLMRVSVGIHKEDIDAAIETYNLLSERWFTHASPTLFNAGTNRPQLSSCFLLSMKDDSIEGIYDTLKQCALISKSAGGIGVAVSCIRATGSYIAGTNGNSNGLVPMLRVYNNTARYVDQGGNKRPGAFAIYLEPWHLDIFEFLDLKKNTGKEEQRARDLFFALWIPDLFMKRVETNQDWSLMCPNECPGLDEVWGEEFEKLYASYEKQGRVRKVVKAQQLWYAIIESQTETGTPYMLYKDSCNRKSNQQNLGTIKCSNLCTEIVEYTSKDEVAVCNLASLALNMYVTSEHTYDFKKLAEVTKVVVRNLNKIIDINYYPVPEACLSNKRHRPIGIGVQGLADAFILMRYPFESAEAQLLNKQIFETIYYGALEASCDLAKEQGPYETYEGSPVSKGILQYDMWNVTPTDLWDWKVLKEKIAKYGIRNSLLIAPMPTASTAQILGNNESIEPYTSNIYTRRVLSGEFQIVNPHLLKDLTERGLWHEEMKNQIIACNGSIQSIPEIPDDLKQLYKTVWEISQKTVLKMAAERGAFIDQSQSLNIHIAEPNYGKLTSMHFYGWKQGLKTGMYYLRTRPAANPIQFTLNKEKLKDKEKVSKEEEEKERNTAAMVCSLENRDECLMCGS
B7: sp¦P09429¦HMGB1_HUMAN (protein, UniProt P09429 1-215, looked up)
High mobility group protein B1: MGKGDPKKPRGKMSSYAFFVQTCREEHKKKHPDASVNFSEFSKKCSERWKTMSAKEKGKFEDMAKADKARYEREMKTYIPPKGETKKKFKDPNAPKRPPSAFFLFCSEYRPKIKGEHPGLSIGDVAKKLGEMWNNTAADDKQPYEKKAAKLKEKYEKDIAAYRAKGKPDAAKKGVVKAEKSKKKKEEEEDEEDEEDEEEEEDEEDEDEEEDDDDE
B8: sp¦P24534¦EF1B_HUMAN (protein, UniProt P24534 2-225, looked up)
Elongation factor 1-beta: GFGDLKSPAGLQVLNDYLADKSYIEGYVPSQADVAVFEAVSSPPPADLCHALRWYNHIKSYEKEKASLPGVKKALGKYGPADVEDTTGSGATDSKDDDDIDLFGSDDEEESEEAKRLREERLAQYESKKAKKPALVAKSSILLDVKPWDDETDMAKLEECVRSIQADGLVWGSSKLVPVGYGIKKLQIQCVVEDDKVGTDMLEEQITAFEDYVQSMDVAAFNKI
B9: sp¦O95816¦BAG2_HUMAN (protein, UniProt O95816 2-211, looked up)
BAG family molecular …: AQAKINAKANEGRFCRSSSMADRSSRLLESLDQLELRVEALREAATAVEQEKEILLEMIHSIQNSQDMRQISDGEREELNLTANRLMGRTLTVEVSVETIRNPQQQESLKHATRIIDEVVNKFLDDLGNAKSHLMSLYSACSSEVPHGPVDQKFQSIVIGCALEDQKKIKRRLETLLRNIENSDKAIKLLEHSKGAGSKTLQQNAESRFN
B10: sp¦P12236¦ADT3_HUMAN (protein, UniProt P12236 1-298, looked up)
ADP/ATP translocase 3: MTEQAISFAKDFLAGGIAAAISKTAVAPIERVKLLLQVQHASKQIAADKQYKGIVDCIVRIPKEQGVLSFWRGNLANVIRYFPTQALNFAFKDKYKQIFLGGVDKHTQFWRYFAGNLASGGAAGATSLCFVYPLDFARTRLAADVGKSGTEREFRGLGDCLVKITKSDGIRGLYQGFSVSVQGIIIYRAAYFGVYDTAKGMLPDPKNTHIVVSWMIAQTVTAVAGVVSYPFDTVRRRMMMQSGRKGADIMYTGTVDCWRKIFRDEGGKAFFKGAWSNVLRGMGGAFVLVLYDELKKVI
B11: sp¦P21953¦ODBB_HUMAN (protein, UniProt P21953 51-392, looked up)
2-oxoisovalerate …: VAHFTFQPDPEPREYGQTQKMNLFQSVTSALDNSLAKDPTAVIFGEDVAFGGVFRCTVGLRDKYGKDRVFNTPLCEQGIVGFGIGIAVTGATAIAEIQFADYIFPAFDQIVNEAAKYRYRSGDLFNCGSLTIRSPWGCVGHGALYHSQSPEAFFAHCPGIKVVIPRSPFQAKGLLLSCIEDKNPCIFFEPKILYRAAAEEVPIEPYNIPLSQAEVIQEGSDVTLVAWGTQVHVIREVASMAKEKLGVSCEVIDLRTIIPWDVDTICKSVIKTGRLLISHEAPLTGGFASEISSTVQEECFLNLEAPISRVCGYDTPFPHIFEPFYIPDKWKCYDALRKMINY
B12: sp¦Q9Y2Z0¦SGT1_HUMAN (protein, UniProt Q9Y2Z0 2-365, looked up)
Protein SGT1 homolog: AAAAAGTATSQRFFQSFSDALIDEDPQAALEELTKALEQKPDDAQYYCQRAYCHILLGNYCVAVADAKKSLELNPNNSTAMLRKGICEYHEKNYAAALETFTEGQKLDIETGFHRVGQAGLQLLTSSDPPALDSQSAGITGADANFSVWIKRCQEAQNGSESEVWTHQSKIKYDWYQTESQVVITLMIKNVQKNDVNVEFSEKELSALVKLPSGEDYNLKLELLHPIIPEQSTFKVLSTKIEIKLKKPEAVRWEKLEGQGDVPTPKQFVADVKNLYPSSSPYTRNWDKLVGEIKEEEKNEKLEGDAALNRLFQQIYSDGSDEVKRAMNKSFMESGGTVLSTNWSDVGKRKVEINPPDDMEWKKY
B13: sp¦O75534¦CSDE1_HUMAN (protein, UniProt O75534 1-798, looked up)
Cold shock domain-containing …: MSFDPNLLHNNGHNGYPNGTSAALRETGVIEKLLTSYGFIQCSERQARLFFHCSQYNGNLQDLKVGDDVEFEVSSDRRTGKPIAVKLVKIKQEILPEERMNGQVVCAVPHNLESKSPAAPGQSPTGSVCYERNGEVFYLTYTPEDVEGNVQLETGDKINFVIDNNKHTGAVSARNIMLLKKKQARCQGVVCAMKEAFGFIERGDVVKEIFFHYSEFKGDLETLQPGDDVEFTIKDRNGKEVATDVRLLPQGTVIFEDISIEHFEGTVTKVIPKVPSKNQNDPLPGRIKVDFVIPKELPFGDKDTKSKVTLLEGDHVRFNISTDRRDKLERATNIEVLSNTFQFTNEAREMGVIAAMRDGFGFIKCVDRDVRMFFHFSEILDGNQLHIADEVEFTVVPDMLSAQRNHAIRIKKLPKGTVSFHSHSDHRFLGTVEKEATFSNPKTTSPNKGKEKEAEDGIIAYDDCGVKLTIAFQAKDVEGSTSPQIGDKVEFSISDKQRPGQQVATCVRLLGRNSNSKRLLGYVATLKDNFGFIETANHDKEIFFHYSEFSGDVDSLELGDMVEYSLSKGKGNKVSAEKVNKTHSVNGITEEADPTIYSGKVIRPLRSVDPTQTEYQGMIEIVEEGDMKGEVYPFGIVGMANKGDCLQKGESVKFQLCVLGQNAQTMAYNITPLRRATVECVKDQFGFINYEVGDSKKLFFHVKEVQDGIELQAGDEVEFSVILNQRTGKCSACNVWRVCEGPKAVAAPRPDRLVNRLKNITLDDASAPRLMVLRQPRGPDNSMGFGAERKIRQAGVID
B14: sp¦Q15370¦ELOB_HUMAN (protein, UniProt Q15370 1-118, looked up)
Elongin-B: MDVFLMIRRHKTTIFTDAKESSTVFELKRIVEGILKRPPDEQRLYKDDQLLDDGKTLGECGFTSQTARPQAPATVGLAFRADDTFEALCIEPFSSPPELPDVMKPQDSGSSANEQAVQ

System: human HL60 cells
Experiment: SWATH-MS proteomics, differential protein representation, akirin2 KO vs WT HL60 cells
Type: cell-based
Conditions: SWATH-MS, akirin2 KO vs WT HL60 cells; over-represented in KO
Procedure, shortened: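 Proteins from WT and akirin2 KO HL60 cells (n=3 biological replicates) were FASP trypsin-digested and analyzed by SWATH-MS DIA with variable windows against an IDA-derived spectral library. Identifications at 1% global FDR; quantities normalized to total area sums of all detected proteins.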

Row | Molecule | Fold Change | Log (Fold Change)
1 | B1 | 1.5342 | 0.1859
2 | B2 | 1.543 | 0.1885
3 | B3 | 1.523 | 0.1827
4 | B4 | 5.464 | 0.7375
5 | B5 | 1.561 | 0.1935
6 | B6 | 1.511 | 0.1792
7 | B7 | 1.517 | 0.1809
8 | B8 | 1.59 | 0.2013
9 | B9 | 1.58 | 0.1985
10 | B10 | 1.53 | 0.1848
11 | B11 | 1.558 | 0.1926
12 | B12 | 1.579 | 0.1983
13 | B13 | 1.544 | 0.1886
14 | B14 | 1.578 | 0.1982
